Data taken from patent US7479480B2, “Peptides that promote lipid efflux” (Lipid Sciences, Inc., priority 2006, dated 2009).
Ends that are not written are not given here.

Columns and labels:
SR-B1 = target: T1, SR-B1 (Rattus norvegicus, UniProt P97943); assay: SR-BI mediated cholesterol efflux; format: cell-based; details: for SR-BI Mediated Efflux % Per 4 h: minus blank; for cholesterol efflux from the Fu5AH cells (SRB1 pathway): result in words
T1 construct: endogenous in cells; host or cells: Fu5AH rat hepatoma cells
T1 sequence (P97943 1-509): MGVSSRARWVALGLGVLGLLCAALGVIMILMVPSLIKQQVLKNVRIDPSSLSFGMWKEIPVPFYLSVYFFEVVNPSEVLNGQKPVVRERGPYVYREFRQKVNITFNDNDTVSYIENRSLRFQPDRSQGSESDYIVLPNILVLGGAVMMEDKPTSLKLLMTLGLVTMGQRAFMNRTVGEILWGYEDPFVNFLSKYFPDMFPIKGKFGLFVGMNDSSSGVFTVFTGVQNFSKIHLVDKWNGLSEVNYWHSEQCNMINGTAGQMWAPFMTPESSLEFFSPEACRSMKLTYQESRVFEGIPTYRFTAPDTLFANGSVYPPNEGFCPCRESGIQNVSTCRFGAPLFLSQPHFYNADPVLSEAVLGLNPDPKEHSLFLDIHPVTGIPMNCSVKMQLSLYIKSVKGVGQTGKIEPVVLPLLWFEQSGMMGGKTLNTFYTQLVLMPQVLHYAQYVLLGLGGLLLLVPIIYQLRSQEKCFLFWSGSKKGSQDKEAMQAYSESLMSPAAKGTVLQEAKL
Text: (§1) The methods employed in this study have been described in U.S. Pat. Nos. 7,029,863, 7,060,452, U.S. Patent Application Publication No. 2005/0191715, and in Moya et al., Arteriosclerosis & Thrombosis 1994:14:1056-1065 and Liu et al., J. Biol. Chem., 2003:278(44), 42976-42984. SR-B1 mediated cholesterol efflux was examined in FU5AH rat hepatoma cells and ABCA1 mediated cholesterol efflux was examined in J774 mouse macrophage cells as described in these references.
(§2) J774 macrophages and Fu5AH […] in culture were used to determine the specificity of SEQ ID NO: 602 to efflux cholesterol by the ABCA-I or SRBI pathways using the methods of de la Llera Moya, M., V., et al. “A cell culture system for screening human serum for ability to promote cellular cholesterol efflux. Relations between serum components and efflux, esterification, and transfer.” Arterioscler. Thromb. 14: 1056-1065 (1994). Anti-inflammatory properties were evaluated by determination of inhibition of expression of activated CD11B human monocytes and suppression of cytokine-induced vascular cell adhesion molecule-1, V-CAM, expression in human coronary artery endothelial cells (HCAECs).

ABCA1 = target: T2, ABCA1 (Mus musculus, UniProt P41233); assay: ABCA1 mediated cholesterol efflux; format: cell-based; set-up: +ABCA1 Cells / −ABCA1 Cells: unit not given here; details: for +ABCA1 Cells / −ABCA1 Cells / ABCA1 Mediated Efflux % Per 4 h: minus blank; for dose dependence of cholesterol efflux from cells containing the ABCA1 pathway (FIG. 3): range of 5 ug/ml to 30 ug/ml; for efflux of cholesterol from J774 macrophage cells (ABCA1 pathway): result in words; for cholesterol efflux via the ABCA-I pathway: Example 17, J774 macrophages
T2 construct: endogenous in cells; host or cells: J774 mouse macrophage cells
Text: as §1, §2

CD11b = CD11b expression in stimulated monocytes by flow cytometry; format: cell-based, human; details: for PMA-induced CD11b expression in human monocytes: 20 μg/ml, PMA 1 μmol/L, FIG. 2
Procedure: Monocyte Isolation Peripheral whole blood (PWB) was drawn from healthy consenting individuals into syringes containing sodium citrate (final concentration—19.2 mM). Resting human monocytes were isolated from PWB by density centrifugation with Lymphoprep (Axis Shield). Mononuclear cells (MNCs) were collected and monocytes were further separated to purity using the Dynal negative isolation kit (Invitrogen). Monocytes were resuspended in phosphate buffered saline (PBS) and cell number was determined counting cell suspension on an automated hematology analyzer (Sysmex, KX-21N, USA).
Flow Cytometry 100 μL of monocytes were stimulated with either 1 μmol/L phorbol-myristate-acetate (PMA) or 1 μg/ml lipopolysaccharide (LPS) (Sigma, Australia) in the presence or absence of apoA-1 (20 μg/ml), or 20 μg/ml of the test peptide SEQ ID NO: 602 (Ac-[…]NH2), each tested separately. The cells were incubated with the FITC conjugated antibody to either the active epitope of CD11b (eBiosciences, USA, Clone CBRM1/5) or total CD11b (Serotec, USA, Clone ICRF44) for 15 min at 37° C. Cells were then fixed with 4% para-formaldehyde. Samples were controlled for by using the appropriately matched isotype matched negative control (FITC-anti-mouse IgG) (Serotec, USA, Clone W3/25). CD11b expression was measured by flow cytometry using FACS Calibur (Becton Dickinson). Analysis was conducted using the Cell Quest Pro software.
Statistical Analysis Values are presented as the mean±SD or percentage of control±SD. FACS results were analyzed for statistical significance using one-way ANOVA followed by Bonferroni post-hoc test. Significance was accepted at P<0.05.
as §2

[1] = system: vascular cell adhesion molecule-1; assay: Cytokine-induced V-CAM expression in human coronary artery endothelial cells; format: cell-based; details: initial data; p<0.05
Procedure: as §2

[2] = system: ApoE knockout and LDL receptor knockout mice; assay: Aortic atherosclerosis in ApoE and LDL receptor knockout mice (Example 14); format: in vivo, mouse; details: 30 mg/kg ip three times per week, 4-5 or 8-10 weeks
Procedure: The mice receive 3 injections per week for either 4-6 or 8-10 weeks. After the completion of the injection, the amount of hardening of the arteries or atherosclerosis is determined in the control injected animals and peptide injected animals to determine if the injections of the synthetic peptide decreased development of atherosclerosis.
For infusion studies B and C, mice are injected ip with either placebo or a synthetic peptide of the present invention (30 mg/kg) three times per week for either 4 to 5 weeks (Infusion Study B) or 8 to 10 weeks (Infusion Study C). Blood for lipid and lipoprotein analyses is obtained at the beginning of the study (day 0) and every two weeks after placebo/peptide injection and at the completion of the study. At the completion of the study (4 to 5 weeks for Infusion Study B and 8 to 10 weeks for Infusion Study C), the animals are sacrificed, organs harvested for analyses of cholesterol content and for aortic atherosclerosis.
No more than 300 ul blood every two weeks is obtained from each mouse. • 4) At the end of Infusion Study B and C all mice are sacrificed by cervical dislocation following isoflurane anesthesia and organs are harvested for analyses of cholesterol as well as aortic atherosclerosis. Before intraperitoneal injections, brief inhaled analgesia is obtained by isoflurane utilizing the E-Z Rodent Anesthesia System in the procedure room. […]

[3] = system: HeLa cells stably transfected with human ABCA1 cDNA; assay: Cholesterol and phospholipid efflux from ABCA1 cells; format: cell-based
Procedure: HeLa cells stably transfected with human ABCA1 cDNA (ABCA1 cells) and HeLa cells transfected with only a hygromycin-resistant control plasmid (control cells) are produced and grown in α-modified Eagle's medium (aMEM) plus 10% fetal calf serum, as described by Remaley et al. (Biochem. Biophys. Res. Commun. 280:818-823, 2001). […] Thromb. Vasc. Biol. 17:1813-1821, 1997). Percentage efflux is calculated after subtracting the radioactive counts in the blank media (aMEM plus 1 mg/ml of BSA), and expressed as the percent of total radioactive counts removed from the cells during the efflux period.
(§3) ABCA1 cells are used to assess the ability of apoA-I and synthetic peptides to efflux lipid from cells. […] The peptides of the present invention efflux approximately 2- to 4-fold more cholesterol and phospholipid from ABCA1 cells than from control cells. Both the peptides of the present invention and apoA-I began to show saturation for lipid efflux at approximately the same protein concentration of 10 μg/ml. The peptides of the present invention remove more cholesterol and phospholipids from control cells than apoA-I.
Cholesterol efflux from ABCA1 cells to apoA-I is first detectable after 2 hours and increases throughout the 30 hour efflux period. […]

[4] = system: HeLa cells transfected with only a hygromycin-resistant control plasmid; assay: Cholesterol and phospholipid efflux from control cells; format: cell-based, human; details: result in words
Procedure: HeLa cells stably transfected with human ABCA1 cDNA (ABCA1 cells) and HeLa cells transfected with only a hygromycin-resistant control plasmid (control cells) are produced and grown in α-modified Eagle's medium (aMEM) plus 10% fetal calf serum, as described by Remaley et al. (Biochem. Biophys. Res. Commun. 280:818-823, 2001). Cholesterol and phospholipid efflux is performed for 18 hours on noncholesterol-loaded cells radiolabeled with either cholesterol or choline (Remaley et al., Arterioscler. Thromb. Vasc. Biol. 17:1813-1821, 1997). Percentage efflux is calculated after subtracting the radioactive counts in the blank media (aMEM plus 1 mg/ml of BSA), and expressed as the percent of total radioactive counts removed from the cells during the efflux period.
as §3, with “apoA-I. […]” for “apoA-I.”

[5] = FU5AH rat hepatoma cells, peptides at 30 μg/ml
[6] = J774 cells, peptides at 30 μg/ml
[7] = J774 cells, peptides at 30 μg/ml, listed as 3
[8] = J774 mouse macrophage cells, peptides at 30 μg/ml
[9] = J774 cells, peptides at 30 μg/ml, listed as 5
[10] = controls: 2% human serum pool, Apo A-I @ 20 μg/ml

T2 sequence (P41233 whole entry): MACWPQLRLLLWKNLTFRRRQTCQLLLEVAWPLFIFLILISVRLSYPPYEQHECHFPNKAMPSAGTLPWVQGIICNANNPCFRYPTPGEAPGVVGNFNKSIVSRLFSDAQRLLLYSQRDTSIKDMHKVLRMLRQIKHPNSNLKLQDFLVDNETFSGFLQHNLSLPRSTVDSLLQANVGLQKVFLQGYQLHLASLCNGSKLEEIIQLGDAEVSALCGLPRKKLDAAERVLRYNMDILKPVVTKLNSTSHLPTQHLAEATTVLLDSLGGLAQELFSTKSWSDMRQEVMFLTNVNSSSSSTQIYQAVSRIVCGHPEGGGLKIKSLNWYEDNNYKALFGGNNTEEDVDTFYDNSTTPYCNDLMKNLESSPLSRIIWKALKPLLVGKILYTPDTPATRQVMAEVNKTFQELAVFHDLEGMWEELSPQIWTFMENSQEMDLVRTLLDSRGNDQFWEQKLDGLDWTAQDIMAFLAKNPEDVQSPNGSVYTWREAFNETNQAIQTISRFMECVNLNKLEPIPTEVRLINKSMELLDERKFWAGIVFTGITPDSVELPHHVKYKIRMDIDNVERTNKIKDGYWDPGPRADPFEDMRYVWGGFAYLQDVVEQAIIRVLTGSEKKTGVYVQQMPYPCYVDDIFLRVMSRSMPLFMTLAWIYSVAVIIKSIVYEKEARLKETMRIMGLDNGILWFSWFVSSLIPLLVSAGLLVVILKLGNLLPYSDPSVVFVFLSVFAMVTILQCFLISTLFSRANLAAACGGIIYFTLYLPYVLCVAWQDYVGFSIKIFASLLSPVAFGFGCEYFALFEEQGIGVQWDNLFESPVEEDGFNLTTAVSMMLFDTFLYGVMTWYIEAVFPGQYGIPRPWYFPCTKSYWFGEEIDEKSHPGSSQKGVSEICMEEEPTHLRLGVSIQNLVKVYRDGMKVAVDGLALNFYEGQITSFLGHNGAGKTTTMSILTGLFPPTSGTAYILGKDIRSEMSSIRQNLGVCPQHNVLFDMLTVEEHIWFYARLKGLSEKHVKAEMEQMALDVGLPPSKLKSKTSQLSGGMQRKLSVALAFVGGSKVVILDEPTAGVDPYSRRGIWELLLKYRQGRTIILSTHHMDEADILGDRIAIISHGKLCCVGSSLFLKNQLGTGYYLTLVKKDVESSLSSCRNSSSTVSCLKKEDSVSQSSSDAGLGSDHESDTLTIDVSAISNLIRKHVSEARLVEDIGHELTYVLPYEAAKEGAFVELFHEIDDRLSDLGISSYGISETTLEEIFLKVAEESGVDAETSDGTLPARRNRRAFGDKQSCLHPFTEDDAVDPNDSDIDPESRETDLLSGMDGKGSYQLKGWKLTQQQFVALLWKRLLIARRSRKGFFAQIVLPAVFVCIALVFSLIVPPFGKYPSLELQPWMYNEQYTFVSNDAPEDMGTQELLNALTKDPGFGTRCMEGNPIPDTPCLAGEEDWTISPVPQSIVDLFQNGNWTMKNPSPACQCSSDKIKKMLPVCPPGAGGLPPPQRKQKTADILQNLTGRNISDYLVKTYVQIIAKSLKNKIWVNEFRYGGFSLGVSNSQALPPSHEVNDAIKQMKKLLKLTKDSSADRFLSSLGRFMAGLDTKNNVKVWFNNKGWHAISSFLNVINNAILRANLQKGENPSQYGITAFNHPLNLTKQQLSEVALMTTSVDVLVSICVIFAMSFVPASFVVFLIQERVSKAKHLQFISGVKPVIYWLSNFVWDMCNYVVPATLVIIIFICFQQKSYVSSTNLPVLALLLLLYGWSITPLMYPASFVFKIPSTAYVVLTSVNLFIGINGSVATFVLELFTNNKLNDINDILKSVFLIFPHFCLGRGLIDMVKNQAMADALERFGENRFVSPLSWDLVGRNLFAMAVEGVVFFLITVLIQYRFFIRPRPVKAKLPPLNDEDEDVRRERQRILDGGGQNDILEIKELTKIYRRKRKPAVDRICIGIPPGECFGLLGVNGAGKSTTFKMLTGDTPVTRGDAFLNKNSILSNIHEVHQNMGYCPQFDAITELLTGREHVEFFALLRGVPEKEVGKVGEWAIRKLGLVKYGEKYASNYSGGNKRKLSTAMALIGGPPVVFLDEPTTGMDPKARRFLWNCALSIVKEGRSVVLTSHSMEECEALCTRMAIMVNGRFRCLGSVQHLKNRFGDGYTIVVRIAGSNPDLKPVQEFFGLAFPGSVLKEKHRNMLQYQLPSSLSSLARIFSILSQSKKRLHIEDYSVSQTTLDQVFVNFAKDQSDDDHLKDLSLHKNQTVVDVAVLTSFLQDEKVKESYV

Ser Pro Leu Ser Asp Glu Lcu Arg Gln Arg Lcu Ala Ala Arg Lcu Glu Ala Leu Lys Glu Asn Lys Leu Ser Pro Leu Leu Glu Ser Phe Lys Val Ser Phe Leu Ser Ala Leu Glu Glu Tyr Thr Lys Lys Leu Asn Thr Gln (SPLSDELRQRLAARLEALKENKLSPLLESFKVSFLSALEEYTKKLNTQ) [Peptide 2]
SR-BI Mediated Efflux % Per 4 h (SR-B1; [5]): 0.16 % Per 4 h
cholesterol efflux from the Fu5AH cells (SRB1 pathway) (SR-B1): negligible or no effect
+ABCA1 Cells (ABCA1; [6]): 14.283 ± 0.545
+ABCA1 Cells (ABCA1; [7]): 13.447 ± 0.549
−ABCA1 Cells (ABCA1; [6]): 1.205 ± 0.211
−ABCA1 Cells (ABCA1; [7]): 1.306 ± 0.261
ABCA1 Mediated Efflux % Per 4 h (ABCA1; [8]): 13.08 % Per 4 h
ABCA1 Mediated Efflux % Per 4 h (ABCA1; J774 mouse macrophage cells, peptides at 30 μg/ml, listed as 3): 12.14 % Per 4 h
dose dependence of cholesterol efflux from cells containing the ABCA1 pathway (FIG. 3) (ABCA1): dose dependent stimulation
efflux of cholesterol from J774 macrophage cells (ABCA1 pathway) (ABCA1): stimulated efflux of cholesterol

Ac-Ser Pro Leu Leu Glu Ser Ala Lys Val Ser Ala Leu Ser Ala Leu Glu Glu Ala Thr Lys Lys Lys Leu Ser Pro Leu Leu Glu Ser Phe Lys Val Ser Phe Leu Ser Ala Leu Glu Glu Tyr Thr Lys Lys Leu Asn Thr Gln-NH2 (Ac-SPLLESAKVSALSALEEATKKKLSPLLESFKVSFLSALEEYTKKLNTQ-NH2) [Peptide 1]
SRB-1 pathway activity (cholesterol efflux) (SR-B1; Example 17, Fu5AH cells): no SRB-1 pathway activity
SR-BI Mediated Efflux % Per 4 h (SR-B1; [5]): 0.15 % Per 4 h
SR-BI Mediated Efflux % Per 4 h (SR-B1; FU5AH rat hepatoma cells, peptides at 30 μg/ml, listed as 5): 0.25 % Per 4 h
cholesterol efflux from the Fu5AH cells (SRB1 pathway) (SR-B1): negligible or no effect
cholesterol efflux via the ABCA-I pathway (ABCA1): 15.34%+2.57
+ABCA1 Cells (ABCA1; [6]): 20.338 ± 0.136
+ABCA1 Cells (ABCA1; [9]): 15.718 ± 0.123
−ABCA1 Cells (ABCA1; [6]): 1.624 ± 0.126
−ABCA1 Cells (ABCA1; [9]): 1.215 ± 0.288
ABCA1 Mediated Efflux % Per 4 h (ABCA1; [8]): 18.71 % Per 4 h
ABCA1 Mediated Efflux % Per 4 h (ABCA1; J774 mouse macrophage cells, peptides at 30 μg/ml, listed as 5): 14.50 % Per 4 h
dose dependence of cholesterol efflux from cells containing the ABCA1 pathway (FIG. 3) (ABCA1): dose dependent stimulation
efflux of cholesterol from J774 macrophage cells (ABCA1 pathway) (ABCA1): stimulated efflux of cholesterol
PMA-induced CD11b expression in human monocytes (CD11b): decrease
PMA-induced CD11b expression in human monocytes (CD11b; listed as SEQ ID NO: 602): significantly reduced
Inhibition of expression of CD11B on human monocytes (CD11b; Example 17, p=<0.01, comparable to apo A-I): statistically significant
V-CAM-1 mRNA levels in HCAECs [1]: decreases
aortic atherosclerosis compared to controls [2]: decrease aortic atherosclerosis

SPLLESAKVSALSALEEATKKKLSPLLESFKVSFLSALEEYTKKLNTQ [Peptide 4]
SR-BI Mediated Efflux % Per 4 h (SR-B1; [5]): 0.10 % Per 4 h
cholesterol efflux from the Fu5AH cells (SRB1 pathway) (SR-B1): negligible or no effect
+ABCA1 Cells (ABCA1; [6]): 12.420 ± 1.019
−ABCA1 Cells (ABCA1; [6]): 1.224 ± 0.121
ABCA1 Mediated Efflux % Per 4 h (ABCA1; [8]): 11.20 % Per 4 h
dose dependence of cholesterol efflux from cells containing the ABCA1 pathway (FIG. 3) (ABCA1): dose dependent stimulation
efflux of cholesterol from J774 macrophage cells (ABCA1 pathway) (ABCA1): stimulated efflux of cholesterol
aortic atherosclerosis compared to controls [2]: decrease aortic atherosclerosis

apolipoprotein A-I [Apo A-I]
SR-BI Mediated Efflux % Per 4 h (SR-B1; [10]): 0.26 % Per 4 h
cholesterol efflux via the ABCA-I pathway (ABCA1): 15.99%+2.07
+ABCA1 Cells (ABCA1; [10]): 20.682 ± 0.724
ABCA1 Mediated Efflux % Per 4 h (ABCA1; [10]): 18.97 % Per 4 h
−ABCA1 Cells (ABCA1; [10]): 1.713 ± 0.409
PMA-induced CD11b expression in human monocytes (CD11b): decrease
PMA-induced CD11b expression in human monocytes (CD11b; listed as ApoA1): significantly reduced
protein concentration at which lipid efflux begins to show saturation [3]: ~10 µg/mL
time at which cholesterol efflux from ABCA1 cells is first detectable ([3]; 30 hour efflux period): 2 h
cholesterol efflux from control cells (time course) [4]: no significant increase above background
